Key:
[1] = molecular target: Adenosine A2A receptor (human) (human) (UniProt P29274); experiment: flow cytometry, control antibody, HEK293-A2a cells (A2a Singlets); Parent Singlets median 230
[2] = molecular target: Adenosine A2A receptor (human) (human) (UniProt P29274); experiment: flow cytometry, control antibody, HEK293-A2a cells (A2a Singlets); Parent Singlets median 230; same picture as FIG. 16O
[3] = molecular target: Adenosine A2A receptor (human) (human) (UniProt P29274); experiment: flow cytometry titration 0.05-100 nM IgG, MFI; grey curve and grey number taken as HEK293-A2a cells, black (ND) as parent cells; same data as FIG. 17H
[4] = molecular target: Adenosine A2A receptor (human) (human) (UniProt P29274); experiment: flow cytometry titration 0.05-100 nM IgG, MFI; grey curve and grey number taken as HEK293-A2a cells, black (ND) as parent cells, no legend on the sheet
[5] = molecular target: Adenosine A2A receptor (human) (human) (UniProt P29274); experiment: cell-based or functional assay

Sequence of Adenosine A2A receptor (human) (human) (P29274 whole entry): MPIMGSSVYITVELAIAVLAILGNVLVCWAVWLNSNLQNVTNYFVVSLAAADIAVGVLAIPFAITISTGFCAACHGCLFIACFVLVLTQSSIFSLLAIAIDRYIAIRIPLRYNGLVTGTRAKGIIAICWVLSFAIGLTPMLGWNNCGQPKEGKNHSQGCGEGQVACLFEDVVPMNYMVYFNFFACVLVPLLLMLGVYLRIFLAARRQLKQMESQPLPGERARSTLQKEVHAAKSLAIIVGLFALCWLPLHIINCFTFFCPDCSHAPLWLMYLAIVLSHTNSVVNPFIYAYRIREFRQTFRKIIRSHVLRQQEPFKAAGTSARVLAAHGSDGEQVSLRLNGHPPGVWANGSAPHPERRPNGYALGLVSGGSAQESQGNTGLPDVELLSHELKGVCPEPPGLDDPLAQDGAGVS

Substance | Median : RL1-H [1] | Median : RL1-H [2] | EC50 [3] [nM] | EC50 [4] [nM] | Absolute IC50, A2A cAMP antagonist titration [5] | Absolute IC50, LANCE allosteric cAMP assay (titrated IgG, fixed NECA) [5] [nM] | Absolute IC50, cAMP allosteric A2A Perkin Elmer assay [5] [nM]
Human Adenosine A2aR monoclonal (MAB9497) (antibody) | 7500 | 7500 | 21.7 | 21.7 | – | – | –
R&D control antibody | – | – | – | – | 9.43 | 9.43 | 0.513

Reference: patent US20250145724A1
